In patent publication US20200123264A1:

Tests used:
[1] = molecular target: extracellular domain of human LEPR with an N-terminal myc-myc tag, GPI-anchored on HEK293 cells (human) (UniProt P48357); assay: FACS, secondary alone, HEK293/hLEPR-GPI cells, 1 µM Leptin
[2] = molecular target: extracellular domain of human LEPR with an N-terminal myc-myc tag, GPI-anchored on HEK293 cells (human) (UniProt P48357); assay: FACS, secondary alone, HEK293/hLEPR-GPI cells, no added Leptin

Sequence of extracellular domain of human LEPR with an N-terminal myc-myc tag, GPI-anchored on HEK293 cells (human) (P48357 22-839 limits assumed): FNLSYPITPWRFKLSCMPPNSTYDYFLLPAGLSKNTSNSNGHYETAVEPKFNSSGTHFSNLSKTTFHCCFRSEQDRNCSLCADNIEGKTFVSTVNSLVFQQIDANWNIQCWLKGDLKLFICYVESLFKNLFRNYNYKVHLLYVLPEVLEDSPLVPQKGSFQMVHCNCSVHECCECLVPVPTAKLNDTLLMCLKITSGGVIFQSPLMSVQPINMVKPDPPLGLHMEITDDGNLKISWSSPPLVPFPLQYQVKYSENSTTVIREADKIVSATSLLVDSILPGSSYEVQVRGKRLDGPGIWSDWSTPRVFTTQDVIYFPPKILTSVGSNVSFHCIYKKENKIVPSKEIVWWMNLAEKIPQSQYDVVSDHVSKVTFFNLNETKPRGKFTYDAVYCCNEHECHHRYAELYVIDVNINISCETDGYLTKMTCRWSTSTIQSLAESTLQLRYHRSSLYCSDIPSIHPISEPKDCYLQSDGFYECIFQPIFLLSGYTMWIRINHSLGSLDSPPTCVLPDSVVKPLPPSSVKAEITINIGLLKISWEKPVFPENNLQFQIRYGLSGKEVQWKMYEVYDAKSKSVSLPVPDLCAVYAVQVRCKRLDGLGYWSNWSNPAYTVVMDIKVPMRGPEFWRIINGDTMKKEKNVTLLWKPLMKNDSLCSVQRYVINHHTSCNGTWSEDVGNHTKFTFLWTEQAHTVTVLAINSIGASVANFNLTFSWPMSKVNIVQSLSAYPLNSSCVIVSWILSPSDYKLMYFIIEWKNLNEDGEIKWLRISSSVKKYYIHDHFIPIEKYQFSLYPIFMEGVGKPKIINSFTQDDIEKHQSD

Row | Binding Ratio (normalized to unstained) [1] | Binding Ratio (normalized to unstained) [2] | Substance
1 | 3 fold | 3 fold | Anti-human IgG secondary antibody alone
2 | 2 fold | 2 fold | Anti-mouse IgG secondary antibody alone
